Test results reported in PMC5770380.

Target: chromatin fibers containing chemically produced H3K9me3 (histone octamers on 12 x 601 array DNA, DA1 or DA2 labelled) (human)

time constant of the increase of compaction (FRET, DA2) after injection of 1 μM HP1α into flow cells with H3K9me3-modified chromatin fibers: 1.1 s
Substance: Heterochromatin protein 1α (HP1α, CBX5) (from UniProt P45973 1-191) (natural protein)
